Measurements: patent US5663067

What was measured:
[1] = tested on: T1, SapI restriction endonuclease (recombinant) (Saccharopolyspora sp.); assay: cleavage_in_vitro; conditions: supernatant of lysate assayed on lambda DNA; purified enzyme also assayed on lambda DNA
T1 sequence: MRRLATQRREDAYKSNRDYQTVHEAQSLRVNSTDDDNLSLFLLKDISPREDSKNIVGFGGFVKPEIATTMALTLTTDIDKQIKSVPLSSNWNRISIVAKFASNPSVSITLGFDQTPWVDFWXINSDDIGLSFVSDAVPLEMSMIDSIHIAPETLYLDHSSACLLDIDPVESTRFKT

[2] = tested on: T2, SapI M1 methylase (Saccharopolyspora sp.); assay: cell_activity; conditions: M1 and M2 co-expressed in E. coli from pACYC184-SapIM1-M2; SapI site protection
T2 sequence: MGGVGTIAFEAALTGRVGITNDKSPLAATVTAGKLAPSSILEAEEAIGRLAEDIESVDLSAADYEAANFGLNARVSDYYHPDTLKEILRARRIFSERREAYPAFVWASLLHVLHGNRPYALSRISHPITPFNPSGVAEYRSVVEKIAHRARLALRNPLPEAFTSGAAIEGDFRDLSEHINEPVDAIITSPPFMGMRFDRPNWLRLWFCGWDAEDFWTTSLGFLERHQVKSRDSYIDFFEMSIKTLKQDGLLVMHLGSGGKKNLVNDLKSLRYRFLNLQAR

[3] = tested on: T3, SapI M2 methylase (Saccharopolyspora sp.); assay: cell_activity; conditions: M1 and M2 co-expressed in E. coli from pACYC184-SapIM1-M2; SapI site protection
T3 sequence: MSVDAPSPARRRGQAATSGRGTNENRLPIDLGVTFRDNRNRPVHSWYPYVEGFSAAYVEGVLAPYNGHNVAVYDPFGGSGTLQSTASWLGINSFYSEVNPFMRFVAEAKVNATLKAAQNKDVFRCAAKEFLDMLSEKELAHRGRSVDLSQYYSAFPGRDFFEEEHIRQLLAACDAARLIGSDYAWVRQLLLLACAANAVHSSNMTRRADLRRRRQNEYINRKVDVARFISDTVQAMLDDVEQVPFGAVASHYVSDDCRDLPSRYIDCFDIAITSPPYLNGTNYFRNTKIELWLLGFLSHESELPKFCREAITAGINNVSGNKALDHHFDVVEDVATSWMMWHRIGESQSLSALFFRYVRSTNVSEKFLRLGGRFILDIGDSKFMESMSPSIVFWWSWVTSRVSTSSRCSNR

Substance | activity (units per g wet cells) [1] | activity (% of DNA resistant to SapI) [2] | activity (% of DNA resistant to SapI) [3]
lambda DNA | 20000 |  | 
pUC19 plasmid DNA (one SapI site) |  | 70 | 70
